Values of other authors as cited in publication PMC3423339.

Molecular target: Alk1 (Homo sapiens) (UniProt P37023)
Sequence of UniProt P37023 (P37023 22-118): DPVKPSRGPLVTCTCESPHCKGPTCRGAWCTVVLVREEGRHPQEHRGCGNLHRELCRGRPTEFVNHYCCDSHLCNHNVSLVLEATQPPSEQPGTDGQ

BMP9 (from UniProt Q9UK05)
Kd: 1 pM
